Assay results from paper PMC3936849, “MB109 as bioactive human bone morphogenetic protein-9 refolded and purified from E. coli inclusion bodies” (Microbial Cell Factories, 2014).

Target: the molecule itself
Assay: non-reduced SDS-PAGE; SEC-purified denatured monomeric MB109 refolded by rapid dilution (CHAPS, NaCl, EDTA, GSH/GSSG, Tris-HCl, 4°C, 7 days); supernatants run on non-reduced 12% SDS-PAGE; disulfide-linked dimer

B1: MB109 (E. coli-derived mature domain of human bone morphogenetic protein-9, refolded functional dimer) (ligand)
chain: MSAGAGSHCQKTSLRVNFEDIGWDSWIIAPKEYEAYECKGGCFFPLADDVTPTKHAIVQTLVHLKFPTKVGKACCVPTKLSPISVLYKDDMGVPTLKYHYEGMSVAECGCR
notes: engineered first methionine (translational start) directly before Ser320; mature domain of human BMP-9, Ser320-Arg429 (110 amino acids) of the 429-residue polypeptide; Disulfide-linked homodimer of the mature domain; pET21a between NdeI and XhoI with a 3' stop codon; also called hBMP-9 mature domain; human BMP-9
B1 was tested, and the “stoichiometry N” value was 2.
